Laboratory results published in patent publication US20240262879.

Assays:
[1] = molecular target: Control (peptide of Table 12)
[2] = molecular target: Peptide 8
[3] = molecular target: Peptide 10
[4] = molecular target: T1, Peptide 5 (GPLGVRG)
T1 chain: GPLGVRG

B1: rhMMP7 (protein)
chain: YSLFPNSPKWTSKVVTYRIVSYTRDLPHITVDRLVSKALNMWGKEIPLHFRKVVWGTADIMIGFARGAHGDSYPFDGPGNTLAHAFAPGTGLGGDAHFDEDERWTDGSSLGINFLYAATHELGHSLGMGHSSDPNAVMYPTYGNGDPQNFKLSQDDIKGIQKLYGKRSNSRKK
**Q.** What does the source list for B1?
**A.** Specific Activity [1]: 10 pmol/min/µg; Specific Activity [2]: 70.9 pmol/min/µg; Specific Activity [3]: 98.4 pmol/min/µg; Specific Activity [4]: 10 pmol/min/µg

B2: rhMMP1 (protein)
chain: FVLTEGNPRWEQTHLTYRIENYTPDLPRADVDHAIEKAFQLWSNVTPLTFTKVSEGQADIMISFVRGDHRDNSPFDGPGGNLAHAFQPGPGIGGDAHFDEDERWTNNFREYNLHRVAAHELGHSLGLSHSTDIGALMYPSYTFSGDVQLAQDDIDGIQAIYGRSQNPVQPIGPQTPKACDSKLTFDAITTIRGEVMFFKDRFYMRTNPFYPEVELNFISVFWPQLPNGLEAAYEFADRDEVRFFKGNKYWAVQGQNVLHGYPKDIYSSFGFPRTVKHIDAALSEENTGKTYFFVANKYWRYDEYKRSMDPGYPKMIAHDFPGIGHKVDAVFMKDGFFYFFHGTRQYKFDPKTKRILTLQKANSWFNCRKN
**Q.** How did the Specific Activity [1] turn out when B2 was run?
**A.** 10 pmol/min/µg

**Q.** What about the Specific Activity [2] of the same protein?
**A.** 10.8 pmol/min/µg

**Q.** What about the Specific Activity [3] of the same protein?
**A.** 10 pmol/min/µg

**Q.** What about the Specific Activity [4] of the same protein?
**A.** 10 pmol/min/µg

B3: rmMMP9 (protein)
chain: FQTFKGLKWDHHNITYWIQNYSEDLPRDMIDDAFARAFAVWGEVAPLTFTRVYGPEADIVIQFGVAEHGDGYPFDGKDGLLAHAFPPGAGVQGDAHFDDDELWSLGKGVVIPTYYGNSNGAPCHFPFTFEGRSYSACTTDGRNDGTPWCSTTADYDKDGKFGFCPSERLYTEHGNGEGKPCVFPFIFEGRSYSACTTKGRSDGYRWCATTANYDQDKLYGFCPTRVDATVVGGNSAGELCVFPFVFLGKQYSSCTSDGRRDGRLWCATTSNFDTDKKWGFCPDQGYSLFLVAAHEFGHALGLDHSSVPEALMYPLYSYLEGFPLNKDDIDGIQYLYGRGSKPDPRPPATTTTEPQPTAPPTMCPTIPPTAYPTVGPTVGPTGAPSPGPTSSPSPGPTGAPSPGPTAPPTAGSSEASTESLSPADNPCNVDVFDAIAEIQGALHFFKDGWYWKFLNHRGSPLQGPFLTARTWPALPATLDSAFEDPQTKRVFFFSGRQMWVYTGKTVLGPRSLDKLGLGPEVTHVSGLLPRRLGKALLFSKGRVWRFDLKSQKVDPQSVIRVDKEFSGVPWNSHDIFQYQDKAYFCHGKFFWRVSFQNEVNKVDHEVNQVDDVGYVTYDLLQCP
**Q.** B3 was tested. Which Specific Activity [1] did it give?
**A.** 10 pmol/min/µg

**Q.** What about the Specific Activity [2] of the same protein?
**A.** 158 pmol/min/µg

**Q.** And the Specific Activity [3]?
**A.** 111 pmol/min/µg

**Q.** What about the Specific Activity [4] of the same protein?
**A.** 292 pmol/min/µg

B4: rhMMP2 (protein)
chain: YNFFPRKPKWDKNQITYRIIGYTPDLDPETVDDAFARAFQVWSDVTPLRFSRIHDGEADIMINFGRWEHGDGYPFDGKDGLLAHAFAPGTGVGGDSHFDDDELWTLGEGQVVRVKYGNADGEYCKFPFLFNGKEYNSCTDTGRSDGFLWCSTTYNFEKDGKYGFCPHEALFTMGGNAEGQPCKFPFRFQGTSYDSCTTEGRTDGYRWCGTTEDYDRDKKYGFCPETAMSTVGGNSEGAPCVFPFTFLGNKYESCTSAGRSDGKMWCATTANYDDDRKWGFCPDQGYSLFLVAAHEFGHAMGLEHSQDPGALMAPIYTYTKNFRLSQDDIKGIQELYGASPDIDLGTGPTPTLGPVTPEICKQDIVFDGIAQIRGEIFFFKDRFIWRTVTPRDKPMGPLLVATFWPELPEKIDAVYEAPQEEKAVFFAGNEYWIYSASTLERGYPKPLTSLGLPPDVQRVDAAFNWSKNKKTYIFAGDKFWRYNEVKKKMDPGFPKLIADAWNAIPDNLDAVVDLQGGGHSYFFKGAYYLKLENQSLKSVKFGSIKSDWLGC
**Q.** B4 was tested. Which Specific Activity [1] did it give?
**A.** 10 pmol/min/µg

**Q.** What about the Specific Activity [2] of the same protein?
**A.** 260 pmol/min/µg

**Q.** And the Specific Activity [3]?
**A.** 163 pmol/min/µg

**Q.** What about the Specific Activity [4] of the same protein?
**A.** 260 pmol/min/µg
